In general, pKd refers to the Kd on a negative log10 scale, so that one unit is a factor of ten.

pKd data for one molecule are collected here from publication PMC9482650, “Quantitative fragmentomics allow affinity mapping of interactomes” (Nature Communications, 2022).

Assay in all cases: holdup assay
Parameters in all cases: key: below the threshold = too weak to quantify, mostly under pKd 3.1 to 4
Conditions in all cases: plain residues with an end cap or a label only (N-terminal biotin on a linker: ado-ado)

For experiment [1], the target named is T1, NHERF3_1, Q5T2W1.
T1 sequence (Q5T2W1 4-100, limits assumed, looked up): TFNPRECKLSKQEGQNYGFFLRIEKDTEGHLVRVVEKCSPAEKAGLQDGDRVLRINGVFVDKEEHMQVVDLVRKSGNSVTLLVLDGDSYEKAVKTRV

The target of experiment [2] is T2, FRMPD1, Q5SYB0.
T2 sequence (Q5SYB0 52-145, limits assumed, looked up): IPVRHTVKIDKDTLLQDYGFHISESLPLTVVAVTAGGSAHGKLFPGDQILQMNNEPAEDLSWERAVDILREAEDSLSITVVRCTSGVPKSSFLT

For experiment [3], the target named is T3, DFNB31_1, Q9P202.
T3 sequence (Q9P202 135-233, limits assumed, looked up): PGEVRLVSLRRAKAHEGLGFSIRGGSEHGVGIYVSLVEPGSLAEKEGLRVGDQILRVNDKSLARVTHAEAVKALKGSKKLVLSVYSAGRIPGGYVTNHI

The target of experiment [4] is ARHGEF12, Q9NZN5-2.
ARHGEF12, Q9NZN5-2, sequence (Q9NZN5 other isoform, or with tags, fused parts or gaps): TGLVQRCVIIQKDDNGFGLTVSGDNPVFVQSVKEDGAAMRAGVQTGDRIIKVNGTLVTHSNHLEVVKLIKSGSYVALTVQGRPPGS

B1: MUC3B, MUC3A, Q02505;Q9H195 (peptide)
chain: KRPEMTSSSV
For the molecule B1, the pKd was 3.85 in experiment [1], “below the threshold” in experiment [2], 4.24 in experiment [3] and 4 in experiment [4].
